Assays:
[1] = target: T1, rHuman Erythropoietin R/Fc Chimera, CF (human, UniProt P19235 25-250); assay: ECL multispot (MSD) assay, antigen spotted on the plate, Fab in solution; blank spot of the same well 231
T1 construct: Bought from R&D Systems; also called EPO R; EPO R/Fc; Fc part of the bought chimera not given
T1 sequence (looked up): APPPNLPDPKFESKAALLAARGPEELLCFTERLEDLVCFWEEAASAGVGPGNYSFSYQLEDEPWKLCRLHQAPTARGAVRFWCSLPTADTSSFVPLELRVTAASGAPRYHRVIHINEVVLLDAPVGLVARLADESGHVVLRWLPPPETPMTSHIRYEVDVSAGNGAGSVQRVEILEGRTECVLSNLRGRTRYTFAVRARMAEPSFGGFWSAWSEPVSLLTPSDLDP

Recombinant Human DLL4 = target: T2, Recombinant Human DLL4 (human, UniProt Q9NR61 27-524); assay: as above
T2 construct: Bought from R&D Systems; also called delta-like protein 4; rHuman DLL4

[2] = target: T3, rHuman P-Cadherin/Fc Chimera, CF (human, UniProt P22223 108-654); assay: as above
T3 construct: Bought from R&D Systems; Fc part of the bought chimera not given

[3] = target: T4, rHuman EGF R/Fc Chimera, CF (human, UniProt P00533 25-645); assay: as above
T4 construct: Bought from R&D Systems; also called epidermal growth factor receptor; Fc part of the bought chimera not given

[4] = target: T5, rHuman Notch-1/Fc Chimera, CF (human, UniProt P46531 19-526); assay: as above
T5 construct: Bought from R&D Systems; Fc part of the bought chimera not given

[5] = target: T6, rHuman CD44/Fc Chimera, CF (human, UniProt P16070 21-220); assay: as above
T6 construct: Bought from R&D Systems; Fc part of the bought chimera not given

[6] = target: T7, rHuman ErbB2/Fc Chimera, CF (human, UniProt P04626 23-652); assay: as above
T7 construct: Bought from R&D Systems; also called human epidermal growth factor 2 receptor; Fc part of the bought chimera not given

[7] = target: T8, rHuman HGF R/c-MET/Fc Chimera, CF (human, UniProt P08581 25-932); assay: as above
T8 construct: Bought from R&D Systems; also called HGF R/Fc; hepatocyte growth factor receptor; Fc part of the bought chimera not given

[8] = target: T9, rHuman IGF-1 sR, (IGF-1 sR), CF (human, UniProt P08069 31-932); assay: as above
T9 construct: Bought from R&D Systems as a soluble receptor; also called insulin-like growth factor-1 soluble receptor

[9] = target: T10, Recombinant Human DLL4 (R&D Systems Cat#1506-D4/CF) (human, UniProt Q9NR61 27-524); assay: MSD multispot ECL, antigen spotted on plate, Fab in solution; blank spot of this row 237
T10 construct: Bought recombinant protein; also called delta-like protein 4; rHuman DLL4

[10] = target: T11, rHuman Erythropoietin R/Fc Chimera, CF (R&D Systems Cat#963-ER) (human, UniProt P19235 25-250); assay: as above
T11 construct: Bought recombinant protein; also called EPO R; Epo R/Fc; Fc part of the bought chimera not given
T11 sequence (looked up): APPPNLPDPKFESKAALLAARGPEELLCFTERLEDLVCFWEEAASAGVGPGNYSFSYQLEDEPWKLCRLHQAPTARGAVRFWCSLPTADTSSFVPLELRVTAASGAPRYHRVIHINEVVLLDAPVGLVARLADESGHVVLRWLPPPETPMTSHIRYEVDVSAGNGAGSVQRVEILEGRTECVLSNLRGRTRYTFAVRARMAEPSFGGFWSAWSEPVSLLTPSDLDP

[11] = target: T12, rHuman Notch-1/Fc Chimera, CF (R&D Systems Cat#3647-TK) (human, UniProt P46531 19-526); assay: as above
T12 construct: Bought recombinant protein; Fc part of the bought chimera not given

[12] = target: T13, rHuman P-Cadherin/Fc Chimera, CF (R&D Systems Cat#861-PC) (human, UniProt P22223 108-654); assay: as above
T13 construct: Bought recombinant protein; Fc part of the bought chimera not given

[13] = target: T14, rHuman ErbB2/Fc Chimera, CF (R&D Systems Cat#1129-ER) (human, UniProt P04626 23-652); assay: as above
T14 construct: Bought recombinant protein; Fc part of the bought chimera not given

[14] = target: T15, rHuman CD44/Fc Chimera, CF (R&D Systems Cat#3660-CD) (human, UniProt P16070 21-220); assay: as above
T15 construct: Bought recombinant protein; Fc part of the bought chimera not given

[15] = target: T16, rHuman EGF R/Fc Chimera, CF (R&D Systems Cat#344-ER) (human, UniProt P00533 25-645); assay: as above
T16 construct: Bought recombinant protein; Fc part of the bought chimera not given

[16] = target: T17, rHuman IGF-1 sR (insulin-like growth factor-1 soluble receptor), CF (R&D Systems Cat#391-GR) (human, UniProt P08069 31-932); assay: as above
T17 construct: Bought recombinant soluble receptor; The column head prints only 'IGF-1'

[17] = target: T18, rHuman HGF R/c-MET/Fc Chimera, CF (R&D Systems Cat#358-MT/CF) (human, UniProt P08581 25-932); assay: as above
T18 construct: Bought recombinant protein; also called HGF R/Fc; Fc part of the bought chimera not given

[18] = target: T10, Recombinant Human DLL4 (R&D Systems …); assay: MSD multispot ECL, antigen spotted on plate, Fab in solution; blank spot of this row 258
[19] = target: T11, rHuman Erythropoietin R/Fc Chimera, CF …; assay: as above
[20] = target: T12, rHuman Notch-1/Fc Chimera, CF (R&D …); assay: as above
[21] = target: T13, rHuman P-Cadherin/Fc Chimera, CF (R&D …); assay: as above
[22] = target: T14, rHuman ErbB2/Fc Chimera, CF (R&D …); assay: as above
[23] = target: T15, rHuman CD44/Fc Chimera, CF (R&D Systems …); assay: as above
[24] = target: T16, rHuman EGF R/Fc Chimera, CF (R&D …); assay: as above
[25] = target: T17, rHuman IGF-1 sR (insulin-like growth …); assay: as above
[26] = target: T18, rHuman HGF R/c-MET/Fc Chimera, CF (R&D …); assay: as above

T18 sequence (P08581 25-932, change not shown): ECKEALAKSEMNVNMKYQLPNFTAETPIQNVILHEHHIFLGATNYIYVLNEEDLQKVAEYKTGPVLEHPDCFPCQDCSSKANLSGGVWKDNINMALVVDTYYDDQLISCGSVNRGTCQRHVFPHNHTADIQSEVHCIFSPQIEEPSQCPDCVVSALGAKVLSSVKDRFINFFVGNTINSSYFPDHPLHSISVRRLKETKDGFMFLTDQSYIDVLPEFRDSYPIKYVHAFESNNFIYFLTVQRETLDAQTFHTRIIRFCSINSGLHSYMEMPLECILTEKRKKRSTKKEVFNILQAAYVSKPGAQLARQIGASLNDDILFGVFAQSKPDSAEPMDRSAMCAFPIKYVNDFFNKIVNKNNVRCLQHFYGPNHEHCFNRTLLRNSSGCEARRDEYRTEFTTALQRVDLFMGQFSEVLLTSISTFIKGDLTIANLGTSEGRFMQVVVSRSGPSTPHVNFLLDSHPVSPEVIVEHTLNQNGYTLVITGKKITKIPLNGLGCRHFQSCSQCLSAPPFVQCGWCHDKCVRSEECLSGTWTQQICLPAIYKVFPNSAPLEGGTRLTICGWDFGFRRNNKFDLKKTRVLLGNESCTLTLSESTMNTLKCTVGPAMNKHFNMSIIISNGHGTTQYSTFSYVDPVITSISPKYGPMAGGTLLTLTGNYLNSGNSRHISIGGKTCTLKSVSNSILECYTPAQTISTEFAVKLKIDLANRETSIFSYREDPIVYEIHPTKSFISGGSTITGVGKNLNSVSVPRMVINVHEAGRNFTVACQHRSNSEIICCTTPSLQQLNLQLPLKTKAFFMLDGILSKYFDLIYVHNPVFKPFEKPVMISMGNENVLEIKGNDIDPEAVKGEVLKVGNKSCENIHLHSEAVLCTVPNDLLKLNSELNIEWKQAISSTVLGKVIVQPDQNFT
T8 sequence (P08581 25-932, change not shown): as above

B1: Fab VH1-46_IGHD6-6*01_IGHJ1*01 S102A/S103P/S104F/H111F (APFF) & L6_IGKJ1*01 S31G (Fab, V domains shown)
VH: QVQLVQSGAEVKKPGASVKVSCKASGYTFTSYYMHWVRQAPGQGLEWMGIINPSGGSTSYAQKFQGRVTMTRDTSTSTVYMELSSLRSEDTAVYYCAREEYAPFSAEYFQFWGQGTLVTVSS
VL: EIVLTQSPATLSLSPGERATLSCRASQSVSGYLAWYQQKPGQAPRLLIYDASNRATGIPARFSGSGSGTDFTLTISSLEPEDFAVYYCQQRSNWPPWTFGQGTKVEIKR
notes: Tested as an E. coli Fab; The heavy chain carries CH1 with His6 and Flag tags from plasmid A, the light chain a kappa CL from plasmid C; also called APFF / S31G; H:APFF & L6_IGKJ1*01 S31G
**Q.** How did the ECL signal [1] turn out when B1 was run?
**A.** 414

**Q.** What about the ECL signal (Recombinant Human DLL4) of the same binder?
**A.** 65500

**Q.** And the ECL signal [2]?
**A.** 384

**Q.** What about the ECL signal [3] of the same binder?
**A.** 391

**Q.** And the ECL signal [4]?
**A.** 426

**Q.** And the ECL signal [5]?
**A.** 381

**Q.** What about the ECL signal [6] of the same binder?
**A.** 311

**Q.** What about the ECL signal [7] of the same binder?
**A.** 378

**Q.** What about the ECL signal [8] of the same binder?
**A.** 301

B2: Fab VH1-46_IGHD6-6*01_IGHJ1*01 S102A/S103P/S104F/H111F (H:APFF) & L6_IGKJ1*01 S76E (Fab, V domains shown)
VH: QVQLVQSGAEVKKPGASVKVSCKASGYTFTSYYMHWVRQAPGQGLEWMGIINPSGGSTSYAQKFQGRVTMTRDTSTSTVYMELSSLRSEDTAVYYCAREEYAPFSAEYFQFWGQGTLVTVSS
VL: EIVLTQSPATLSLSPGERATLSCRASQSVSSYLAWYQQKPGQAPRLLIYDASNRATGIPARFSGSGSGTDFTLTIESLEPEDFAVYYCQQRSNWPPWTFGQGTKVEIKR
notes: Fab expressed in E. coli from plasmid A (heavy chain CH1, His6 and Flag tags) and plasmid C (kappa CL)
**Q.** What does the source list for B2?
**A.** ECL signal [9]: 51600; ECL signal [10]: 440; ECL signal [11]: 313; ECL signal [12]: 338; ECL signal [13]: 277; ECL signal [14]: 439; ECL signal [15]: 266; ECL signal [16]: 336; ECL signal [17]: 228

B3: Fab VH1-46_IGHD6-6*01_IGHJ1*01 S102A/S103P/S104F/H111F (H:APFF) & L6_IGKJ1*01 S76Q (Fab, V domains shown)
VH: QVQLVQSGAEVKKPGASVKVSCKASGYTFTSYYMHWVRQAPGQGLEWMGIINPSGGSTSYAQKFQGRVTMTRDTSTSTVYMELSSLRSEDTAVYYCAREEYAPFSAEYFQFWGQGTLVTVSS
VL: EIVLTQSPATLSLSPGERATLSCRASQSVSSYLAWYQQKPGQAPRLLIYDASNRATGIPARFSGSGSGTDFTLTIQSLEPEDFAVYYCQQRSNWPPWTFGQGTKVEIKR
notes: as for B2
**Q.** B3 was tested. Which ECL signal [18] did it give?
**A.** 48300

**Q.** And the ECL signal [19]?
**A.** 430

**Q.** What about the ECL signal [20] of the same binder?
**A.** 255

**Q.** What about the ECL signal [21] of the same binder?
**A.** 364

**Q.** And the ECL signal [22]?
**A.** 264

**Q.** What about the ECL signal [23] of the same binder?
**A.** 287

**Q.** And the ECL signal [24]?
**A.** 324

**Q.** And the ECL signal [25]?
**A.** 188

**Q.** What about the ECL signal [26] of the same binder?
**A.** 386

— patent publication US20120316071A1 (published 2012)
